Values of other authors, collected in publication PMC10155966.

Tests used:
[1] = target: LC8 (UniProt P63167)
[2] = target: dynein intermediate chain (IC) (Rattus norvegicus) (UniProt Q63100); assay: ITC
Sequence of UniProt Q63100 (Q63100 2-643): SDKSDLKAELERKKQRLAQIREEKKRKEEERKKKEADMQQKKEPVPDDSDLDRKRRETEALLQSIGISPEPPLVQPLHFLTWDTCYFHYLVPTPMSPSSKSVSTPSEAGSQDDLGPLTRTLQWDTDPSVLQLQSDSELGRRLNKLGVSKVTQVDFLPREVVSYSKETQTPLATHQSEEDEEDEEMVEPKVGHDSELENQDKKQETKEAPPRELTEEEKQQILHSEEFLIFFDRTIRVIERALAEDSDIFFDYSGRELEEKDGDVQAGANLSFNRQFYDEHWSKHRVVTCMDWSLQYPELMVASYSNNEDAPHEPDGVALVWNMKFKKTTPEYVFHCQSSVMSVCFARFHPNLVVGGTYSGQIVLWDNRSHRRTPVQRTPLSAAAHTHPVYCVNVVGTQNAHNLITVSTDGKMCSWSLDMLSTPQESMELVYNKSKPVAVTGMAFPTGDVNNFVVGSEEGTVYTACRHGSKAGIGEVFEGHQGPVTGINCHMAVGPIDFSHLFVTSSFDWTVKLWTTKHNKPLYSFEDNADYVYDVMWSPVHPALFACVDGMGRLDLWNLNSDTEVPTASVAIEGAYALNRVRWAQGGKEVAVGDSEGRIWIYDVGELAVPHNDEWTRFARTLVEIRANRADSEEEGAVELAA

Kd [1] | Kd [2] | Substance
60 nM | – | LC8 (from UniProt P63167)
– | 2300 nM | NudE (from UniProt Q9ES39)
